The target in the experiment is T1, SARS-CoV-2 WT RBD protein (Sino Biological) (SARS-CoV-2 WT, UniProt P0DTC2).
T1 construct: also called viral RBD; immobilized RBD
Briefly: SPR. Conditions: both partners purified.

B1: LY-CoV1404 (Bebtelovimab) (antibody, V domains shown)
VH: QITLKESGPTLVKPTQTLTLTCTFSGFSLSISGVGVGWLRQPPGKALEWLALIYWDDDKRYSPSLKSRLTISKDTSKNQVVLKMTNIDPVDTATYYCAHHSISTIFDHWGQGTLVTVSS
VL: QSALTQPASVSGSPGQSITISCTATSSDVGDYNYVSWYQQHPGKAPKLMIFEVSDRPSGISNRFSGSKSGNTASLTISGLQAEDEADYYCSSYTTSSAVFGGGTKLTVL
notes: also called class III LY-CoV1404
B1: the binding result is listed as “binds”.

These data come from article PMC9817130, “Structural insights into broadly neutralizing antibodies elicited by hybrid immunity against SARS-CoV-2” (Emerging Microbes & Infections, 2023).
